{
  "source": "patent US5767233A",
  "about": "“Soluble cleavable substrates of the hepatitis C virus protease” (Schering Corporation, priority 1995, dated 1998)",
  "molecules": {"B1": {"name": "pNB182Δ4A: E. coli-expressed fusion of NS3 catalytic domain (182aa)-G-NS4A(4-54) with hydrophilic tail, named by its plasmid (protein)", "chain": "MRGSHHHHHHTDPPITAYAQQTRGLLGCIITSLTGRDKNQVEGEVQIVSTATQTFLATCINGVCWTVYHGAGTRTIASPKGPVIQMYTNVDQDLVGWPAPQGSRSLTPCTCGSSDLYLVTRHADVIPVRRRGDSRGSLLSPRPISYLKGSSGGPLLCPAGHAVGLFRAAVCTRGVTKAVDFIPVENLETTMRSPGVLVGGVLAALAAYCLSTGCVVIVGRIVLSGKPAIIPDREVLYQEFDEMEECRKKKRRKLN"}, "B2": {"name": "HisHIV183: histidine-tagged HCV NS3 protease without solubilizing motif, refolded from E. coli inclusion bodies (protein)", "chain": "MRGSHHHHHHGSHKARVLAEAMSHGTMAPITAYAQQTRGLLGCIITSLTGRDKNQVEGEVQIVSTATQTFLATCINGVCWTVYHGAGTRTIASPKGPVIQMYTNVDQDLVGWPAPQGSRSLTPCTCGSSDLYLVTRHADVIPVRRRGDSRGSLLSPRPISYLKGSSGGPLLCPAGHAVGLFRAAVCTRGVTKAVDFIPVENLETTMRSPV"}, "B3": {"name": "pBJ1022: E. coli-expressed His-tagged NS3 protease catalytic domain with hydrophilic tail, named by its plasmid (protein)", "chain": "MRGSHHHHHHTDPPITAYAQQTRGLLGCIITSLTGRDKNQVEGEVQIVSTATQTFLATCINGVCWTVYHGAGTRTIASPKGPVIQMYTNVDQDLVGWPAPQGSRSLTPCTCGSSDLYLVTRHADVIPVRRRGDSRGSLLSPRPISYLKGSSGGPLLCPAGHAVGLFRAAVCTRGVTKAVDFIPVENLETTMRSPVRKKKRR"}},
  "type_in_all_cases": "biochemical, Hepatitis C virus (HCV)",
  "key": {"[1]": {"target": "T1, NS3 protease (pBJ1022, NS3 catalytic domain) (Hepatitis C virus genotype 1a, UniProt P27958)", "T1 construct": "made in house; host or cells: E. coli M15 [pREP4]", "T1 sequence (P27958 1028-1209)": "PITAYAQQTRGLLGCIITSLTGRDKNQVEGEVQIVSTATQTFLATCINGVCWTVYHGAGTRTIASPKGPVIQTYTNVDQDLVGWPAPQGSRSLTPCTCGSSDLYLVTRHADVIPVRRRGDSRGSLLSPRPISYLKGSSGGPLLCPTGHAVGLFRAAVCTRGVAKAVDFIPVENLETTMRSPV", "assay": "Enhancement by 4A peptides of NS3 cleavage in the in vitro translation assay", "method": "(§1) The plasmid pTS102 encoding the substrate 5A/5B was linearized by digestion with EcoR I and was transcribed using T7 RNA polymerase in vitro. The RNA was translated in presence of ^35 S methionine in rabbit reticulocyte lysates according to the manufacturer's (Promega protocol to produce HCV specific protein. In a 20 μl total reaction mixture containing 10 mM Tris, pH 7.5, 1 mM DTT, 0.5 mM EDTA, and 10% glycerol was placed 2 to 8 μl of ^35 S methionine-labeled translated 5A/5B substrate. The reaction was started with the addition of 10 μl of HCV NS3 protease in solubilization buffer (50 mM Na Phosphate, pH 7.8, 0.3M NaCl, 0.2% Tween 20, 10 mM DTT or BME, 10% glycerol), and incubated at 30° C. for the specified time. Reactions were stopped by adding an equal volume of 2X Laemmli sample buffer (Enprotech Inc.) and heating at 100° C. for 3 minutes. Reaction products were separated by SDS PAGE electrophoresis; gels were fixed, dried and subjected to autoradiography.\n(§2) NS4A is able to enhance the NS3 serine protease activity at NS5A/5B site in mammalian cells that transiently coexpress NS3, NS4A, and the various HCV non-structural polyprotein containing downstream cleavage sites. We have studied this enhancement activity in a well defined cell-free biochemical assay, using the partially purified E. coli-expressed pBJ1022 as a source of NS3 protease, and synthetic peptides containing various truncations of NS4A. In our first experiment we used a crude cell lysate of pBJ1022 as the enzyme and NS4A synthetic peptide truncated 33 mer from amino acid 22 to amino acid 54, the carboxy-terminal in vitro translation cleavage reaction.\n(§3) To further characterize NS4A enhancement activity additional truncations were made to the NS4A sequence. Truncated peptides were evaluated for their activity in the in vitro translation assay using Ni^2+ chelate column-purified pBJ1022 (NS3 catalytic domain)."}, "[2]": {"system": "NS3 protease (pBJ1022, NS3 catalytic domain)", "assay": "Enhancement by 4A peptides of NS3 cleavage in the in vitro translation assay", "conditions": "no NS3 protease present", "method": "as §1, §2, §3"}, "[3]": {"system": "in vitro translated 5A/5B substrate (40 kD protein containing the NS5A/5B cleavage site)", "assay": "Analysis of NS3 protease activity by in vitro translation assay", "text": "(§4) To detect HCV NS3 protease activity in trans, we have expressed a 40 kD protein containing the NS5A/5B cleavage site in cell-free translation system and used that as the substrate for the enzyme. The substrate protein produces two protein products of apparent molecular weight 12.5 kD (NS 5A') and 27 kD (NS5B') upon cleavage by the HCV NS3 protease.\nas §1"}, "[4]": {"system": "in vitro-translated 5A/5B substrate", "assay": "Analysis of refolded NS3 protease activity by in vitro translation assay", "conditions": "in the presence of 4A peptide (33 mer, 2 μM), 30° C., about one hour", "text": "as §4\nas §1, with “(Promega)” for “(Promega”, “protease (SEQ ID NO: 5) with an approximately equimolar amount (2 μM) of the carboxyterminal 33 mer cofactor NS4A (SEQ ID NO: 29)” for “protease”, “about one hour.” for “the specified time.”, “Reaction products were separated by SDS PAGE electrophoresis; gels were fixed, dried and subjected to autoradiography.” left out"}},
  "note": "“Also recorded” adds a separate entry of the source.",
  "data": [
    {"molecule": "C-terminal 33 amino acid peptide of NS4A: NS4A synthetic peptide truncated 33 mer from amino acid 22 to amino acid 54 (strain HCV-BK) (CVVIVGRIVLSGKPAIIPDREVLYQEFDEMEEC)", "values": [
      {"measurement": "enhancement of NS3 mediated cleavage activity", "setting": "[1]; Ni2+ chelate column-purified pBJ1022 (NS3 catalytic domain)", "result": "able to enhance the NS3 mediated cleavage activity"},
      {"measurement": "enhancement of NS3 catalytic domain activity at the 5A/5B site", "setting": "[1]; crude cell lysate of pBJ1022 as enzyme, 0.01 μM to 1.0 μM peptide, 30 minutes", "result": "able to enhance the activity of the NS3 catalytic domain in a dose dependent manner"},
      {"measurement": "cleavage of the substrate by the 4A peptide itself or with vector lysate", "setting": "[2]", "result": "did not cleave the substrate"}
    ]},
    {"molecule": "B1", "values": [
      {"measurement": "time at which 5A and 5B cleavage products began to appear", "setting": "[3]; 30° C., soluble lysate at 1 μl per 20 μl reaction volume", "result": 1, "unit": "min"},
      {"measurement": "amount of lysate at which cleavage reached a maximum", "setting": "[3]; 30 minutes incubation", "result": 1, "unit": "µL"},
      {"measurement": "least amount of cell lysate at which 5A and 5B cleavage products were detected", "setting": "[3]; 30 minutes incubation", "result": 0.125, "unit": "µL"},
      {"measurement": "activity of crude soluble lysate compared with pBJ1022 lysate", "setting": "[3]; crude soluble lysate, 30 minutes incubation", "result": "much more active"},
      {"measurement": "cleavage of translated 5A/5B substrate by imidazole-eluted fractions", "setting": "[3]; fractions from Ni-NTA column purification", "result": "all able to cleave the translated 5A/5B Substrate"}
    ]},
    {"molecule": "B2", "values": [
      {"measurement": "trans-cleavage activity of the refolded protease on 5A/5B substrate", "setting": "[4]", "result": "active; also recorded: able to cleave 5A/5B substrate in a dose responsive manner"}
    ]},
    {"molecule": "B3", "values": [
      {"measurement": "HCV protease activity of imidazole-eluted fractions", "setting": "[3]; POROS Ni2+ chelate purification, NS4A amino acids 22 to 54 peptide added at 1 μM", "result": "active"},
      {"measurement": "cleavage activity by the protease alone, without the 4A peptide", "setting": "[3]; crude cell lysate, incubation time of 30 minutes", "result": "relatively low cleavage activity"},
      {"measurement": "cleavage of 5A/5B substrate by crude soluble lysate", "setting": "[3]; two hour assay at 30° C., lysate at 3, 6 and 10 μl, SDS PAGE", "result": "able to cleave 5A/5B substrate in a dose responsive manner"}
    ]}
  ]
}
